The text below walks through data of PMC4738280, “Transthyretin participates in beta-amyloid transport from the brain to the liver- involvement of the low-density lipoprotein receptor-related protein 1?” (Scientific Reports, 2016).

Common to all, as to assay type: cell-based, human
One data set relates to SAHep cells. The data set is described as follows: FAM-Aβ1-42 internalization by SAHep cells, flow cytometry. The note with it: FAM-Aβ1-42, 4.5–7.5 μg/mL of h rTTR, 3 hours, 37 °C, N = 3. As to the method:
For the study with hepatocytes, SAHep cells were grown in 6-well plates coated with collagen type I and after 24 hours cells were incubated with FAM-Aβ1-42 in the presence or absence of h rTTR (136 nM) for 3 hours at 37 °C. For primary hepatocytes, after 48 hours of seeding, cells were incubated with FAM-Aβ1-42 (100 nM), with the advantage of no need for TTR addition. For hepatocytes derived from TTR−/− mice, we also examined the effect of h rTTR on FAM-Aβ1-42 internalization. FAM-Aβ1-42 inside SAHep cells and primary hepatocytes was measured by flow cytometry (FACS Canto II, BD Biosciences).
In general terms: Flow cytometry measures light scatter and fluorescence of single cells or particles in a stream.

Data set [1] concerns hCMEC/D3 cells. The data set is described as follows: FAM-Aβ1-42 efflux from hCMEC/D3 cells, flow cytometry. The note with it: hCMEC/D3, 10 min loading with FAM-Aβ1-42, then 20 min in FAM-Aβ1-42-free media, 37 °C, mean of N = 3. As to the method:
For efflux studies, hCMEC/D3 cells were initially incubated with FAM-Aβ1-42 for 10 minutes and then the media was removed and replaced with FAM-Aβ1-42 -free media, and further incubated for 10 and 20 minutes, at 37 °C. Finally, cells were analyzed by flow cytometry, as described above.

For data set [2], the system named is hCMEC/D3 cells. The data set is described as follows: FAM-Aβ1-42 uptake by hCMEC/D3 cells, flow cytometry. The note with it: hCMEC/D3, FAM-Aβ1-42 500 ng/mL (100 nM), 37 °C. The protocol: For quantification of Aβ1-42 uptake, hCMEC/D3 cells were plated into a 6-well plate coated with collagen type I and grown to confluence. Cells were washed with PBS and incubated for 5, 10, 15 and 30 minutes at 37 °C, with 500 ng/mL of FAM-Aβ1-42 (100 nM) in presence or absence of h rTTR (7.5 μg/mL, 136 nM). After incubation, cells were washed twice with PBS and enzymatically detached using trypsin (Gibco™), and then resuspended cells were centrifuged at 1000 rpm at RT for 5 minutes. The pellet was washed with PBS and cells recentrifuged as described above. Then the pellet was resuspended with PBS, and if necessary fixed with 4% Paraformaldehyde (PFA). Finally, cells were analyzed in FACS Canto II equipment (BD Biosciences) using Blue laser excitation of 488 nm. The flow cytometry data were analyzed using the Flowjo workstation.

For “FAM-Aβ1-42: Aβ1-42 labeled with 5-(and-6)-Carboxyfluorescenin (FAM), purchased from AnaSpec”, the “Uptake of Aβ1-42 peptide by SAHep cells, maximum” value with SAHep cells amounted to 70%. In addition, the “FAM-Aβ1-42 efflux, fluorescent cells remaining” value came to 67.6% in the data set on hCMEC/D3 cells [1] (absence of TTR) and 45.5% with hCMEC/D3 cells [1] (presence of h rTTR). In addition, the “FAM-Aβ1-42 uptake, fluorescent cells” value is 35–39% in the data set with hCMEC/D3 cells [2] (5 min, absence and presence of h rTTR 7.5 μg/mL (136 nM), N = 3); “over 57%” with hCMEC/D3 cells [2] (10 min, absence and presence of h rTTR 7.5 μg/mL, difference not significant, N = 3); 61.7% in the data set on hCMEC/D3 cells [2] (15 min, absence of TTR, mean of N = 3); “about 73%” with hCMEC/D3 cells [2] (15 min, presence of h rTTR 7.5 μg/mL (136 nM), mean of N = 3). Besides, the “FAM-Aβ1-42 internalization with versus without TTR” value in the data set on hCMEC/D3 cells [2] (30 min, h rTTR 7.5 μg/mL versus none, N = 3) is listed as “significantly higher in the presence of TTR”.
